Reference: patent US20040197858A1

What was measured:
[1] = target: purified α-thrombin derived from plasma (human) (UniProt P00734); assay: cell-based or functional assay
[2] = target: purified recombinant α-thrombin (human) (UniProt P00734); assay: cell-based or functional assay

antithrombin III
Inhibition by ATIII: Secondary reaction constant [1]: 0.65 µM⁻¹ min⁻¹
Inhibition by ATIII: Secondary reaction constant [2]: 0.57 µM⁻¹ min⁻¹
